According to the supplement of paper PMC11246515:
± gives the standard deviation of the averaged measurements.

Experiment: total protein half-life in vivo (active degradation + dilution); higher = more stable protein
[1] = E. coli NCM3722 delta-clpP delta-lon delta-hslV, growth: N-lim chemostat, doubling time 6 h
[2] = E. coli NCM3722 delta-clpP, growth: N-lim chemostat, doubling time 6 h
[3] = E. coli NCM3722 delta-hslV, growth: N-lim chemostat, doubling time 6 h
[4] = E. coli NCM3722 delta-lon, growth: N-lim chemostat, doubling time 6 h
[5] = E. coli NCM3722 delta-smpB, growth: N-lim chemostat, doubling time 6 h
[6] = wild type E. coli NCM3722, growth: C-lim chemostat, doubling time 3 h
[7] = wild type E. coli NCM3722, growth: C-lim chemostat, doubling time 6 h
[8] = wild type E. coli NCM3722, growth: C-lim chemostat, doubling time 12 h
[9] = wild type E. coli NCM3722, growth: N-lim chemostat, doubling time 6 h
[10] = wild type E. coli NCM3722, growth: N-lim chemostat, doubling time 12 h
[11] = wild type E. coli NCM3722, growth: P-lim chemostat, doubling time 6 h
[12] = wild type E. coli NCM3722, growth: P-lim chemostat, doubling time 12 h

| Sequence | total protein half-life in vivo [1] [h] | total protein half-life in vivo [2] [h] | total protein half-life in vivo [3] [h] | total protein half-life in vivo [4] [h] | total protein half-life in vivo [5] [h] | total protein half-life in vivo [6] [h] | total protein half-life in vivo [7] [h] | total protein half-life in vivo [8] [h] | total protein half-life in vivo [9] [h] | total protein half-life in vivo [10] [h] | total protein half-life in vivo [11] [h] | total protein half-life in vivo [12] [h] |
| --- | --- | --- | --- | --- | --- | --- | --- | --- | --- | --- | --- | --- |
| MISVTLSQLTDILNGELQGADITLDAVTTDTRKLTPGCLFVALKGERFDAHDFADQAKAGGAGALLVSRPLDIDLPQLIVKDTRLAFGELAAWVRQQVPARVVALTGSSGKTSVKEMTAAILSQCGNTLYTAGNLNNDIGVPMTLLRLTPEYDYAVIELGANHQGEIAWTVSLTRPEAALVNNLAAAHLEGFGSLAGVAKAKGEIFSGLPENGIAIMNADNNDWLNWQSVIGSRKVWRFSPNAANSDFTATNIHVTSHGTEFTLQTPTGSVDVLLPLPGRHNIANALAAAALSMSVGATLDAIKAGLANLKAVPGRLFPIQLAENQLLLDDSYNANVGSMTAAVQVLAEMPGYRVLVVGDMAELGAESEACHVQVGEAAKAAGIDRVLSVGKQSHAISTASGVGEHFADKTALITRLKLLIAEQQVITILVKGSRSAAMEEVVRALQENGTC | 4.74 ± 0.18 | 4.41 ± 0.27 | 5.24 ± 0.92 | 4.44 ± 0.34 | 4.68 ± 0.057 | 3.37 ± 0.67 | 6.24 ± 1.3 | 9.83 ± 0.28 | 4.48 ± 0.31 | 7.03 ± 0.19 | 5.79 ± 0.27 | 10.2 ± 1.7 |
| MITHISPLGSMDMLSQLEVDMLKRTASSDLYQLFRNCSLAVLNSGSLTDNSKELLSRFENFDINVLRRERGVKLELINPPEEAFVDGRIIRALQANLFAVLRDILFVYGQIHNTVRFPNLNLDNSVHITNLVFSILRNARALHVGEAPNMVVCWGGHSINENEYLYARRVGNQLGLRELNICTGCGPGAMEAPMKGAAVGHAQQRYKDSRFIGMTEPSIIAAEPPNPLVNELIIMPDIEKRLEAFVRIAHGIIIFPGGVGTAEELLYLLGILMNPANKDQVLPLILTGPKESADYFRVLDEFVVHTLGENARRHYRIIIDDAAEVARQMKKSMPLVKENRRDTGDAYSFNWSMRIAPDLQMPFEPSHENMANLKLYPDQPVEVLAADLRRAFSGIVAGNVKEVGIRAIEEFGPYKINGDKEIMRRMDDLLQGFVAQHRMKLPGSAYIPCYEICT [P0ADR8] | 5.75 ± 1.1 | 4.95 ± 0.11 | 5.02 ± 0.07 | 5.1 ± 0.26 | 4.58 ± 0.19 | 3.03 ± 0.13 | 6.01 ± 0.13 | 11.3 ± 0.31 | 5.07 ± 0.029 | 9.48 ± 0.11 | 5.93 ± 0.55 | 11.9 ± 0.48 |
| MITIRDVARQAGVSVATVSRVLNNSTLVSADTREAVMKAVSELDYRPNANAQALATQVSDTIGVVVMDVSDAFFGALVKAVDLVAQQHQKYVLIGNSYHEAEKERHAIEVLIRQRCNALIVHSKALSDDELAQFMDNIPGMVLINRVVPGYAHRCVCLDNLSGARMATRMLLNNGHQRIGYLSSSHGIEDDAMRKAGWMSALKEQDIIPPESWIGAGTPDMPGGEAAMVELLGRNLQLTAVFAYNDNMAAGALTALKDNGIAIPLHLSIIGFDDIPIARYTDPQLTTVRYPIASMAKLATELALQGAAGNIDPRASHCFMPTLVRRHSVATRQNAAAITNSTNQAM | 5.93 | 3.96 | – | – | – | – | 4.74 ± 0.55 | 8.13 ± 1.9 | – | – | – | 10.9 |
| MITLWGRNNSTNVKKVLLTLEELELPYEQILAGREFGINHDADFLAMNPNGLVPLLRDDESDLILWESNAIVRYLAAQYGQKRLWIDSPARRAEAEKWMDWANQTLSNAHRGILMGLVRTPPEERDQAAIDASCKECDALFALLDAELAKVKWFSGDEFGVGDIAIAPFIYNLFNVGLTWTPRPNLQRWYQQLTERPAVRKVVMIPVS [P0ACA7] | 5.15 ± 0.42 | 4.47 ± 0.4 | 5.27 ± 1.5 | 4.6 ± 0.45 | 4.53 ± 0.24 | 2.9 ± 0.27 | 6.21 ± 0.49 | 9.3 ± 0.54 | 4.49 ± 0.48 | 7.89 ± 0.23 | 5.74 ± 0.36 | 12.1 ± 0.25 |
| MITNTKLDPIETASVDELQALQTQRLKWTLKHAYENVPMYRRKFDAAGVHPDDFRELSDLRKFPCTTKQDLRDNYPFDTFAVPMEQVVRIHASSGTTGKPTVVGYTQNDIDNWANIVARSLRAAGGSPKDKIHVAYGYGLFTGGLGAHYGAERLGATVIPMSGGQTEKQAQLIRDFQPDMIMVTPSYCLNLIEELERQLGGDASGCSLRVGVFGAEPWTQAMRKEIERRLGITALDIYGLSEVMGPGVAMECLETTDGPTIWEDHFYPEIVNPHDGTPLADGEHGELLFTTLTKEALPVIRYRTRDLTRLLPGTARTMRRMDRISGRSDDMLIIRGVNVFPSQLEEEIVKFEHLSPHYQLEVNRRGHLDSLSVKVELKESSLTLTHEQRCQVCHQLRHRIKSMVGISTDVMIVNCGSIPRSEGKACRVFDLRNIVGA | 4.99 ± 0.39 | – | – | – | – | 0.692 ± 0.075 | 0.955 ± 0.08 | 1.21 ± 0.14 | – | – | – | 0.624 |
| MIVAFCLYKYFPFGGLQRDFMRIASTVAARGHHVRVYTQSWEGDCPKAFELIQVPVKSHTNHGRNAEYYAWVQNHLKEHPADRVVGFNKMPGLDVYFAADVCYAEKVAQEKGFLYRLTSRYRHYAAFERATFEQGKSTKLMMLTDKQIADFQKHYQTEPERFQILPPGIYPDRKYSEQIPNSREIYRQKNGIKEQQNLLLQVGSDFGRKGVDRSIEALASLPESLRHNTLLFVVGQDKPRKFEALAEKLGVRSNVHFFSGRNDVSELMAAADLLLHPAYQEAAGIVLLEAITAGLPVLTTAVCGYAHYIADANCGTVIAEPFSQEQLNEVLRKALTQSPLRMAWAENARHYADTQDLYSLPEKAADIITGGLDG | 6.84 ± 0.81 | 7.01 ± 1.2 | 6.71 ± 0.8 | 5.95 ± 0.33 | 5.9 ± 0.47 | 3.115 ± 0.015 | 6.72 ± 0.35 | 11.8 ± 2.6 | 6.2 ± 0.56 | 12.3 ± 1.8 | 6.25 ± 0.29 | 12.2 ± 0.98 |
| MIVFSSLQIRRGVRVLLDNATATINPGQKVGLVGKNGCGKSTLLALLKNEISADGGSYTFPGSWQLAWVNQETPALPQAALEYVIDGDREYRQLEAQLHDANERNDGHAIATIHGKLDAIDAWSIRSRAASLLHGLGFSNEQLERPVSDFSGGWRMRLNLAQALICRSDLLLLDEPTNHLDLDAVIWLEKWLKSYQGTLILISHDRDFLDPIVDKIIHIEQQSMFEYTGNYSSFEVQRATRLAQQQAMYESQQERVAHLQSYIDRFRAKATKAKQAQSRIKMLERMELIAPAHVDNPFRFSFRAPESLPNPLLKMEKVSAGYGDRIILDSIKLNLVPGSRIGLLGRNGAGKSTLIKLLAGELAPVSGEIGLAKGIKLGYFAQHQLEYLRADESPIQHLARLAPQELEQKLRDYLGGFGFQGDKVTEETRRFSGGEKARLVLALIVWQRPNLLLLDEPTNHLDLDMRQALTEALIEFEGALVVVSHDRHLLRSTTDDLYLVHDRKVEPFDGDLEDYQQWLSDVQKQENQTDEAPKENANSAQARKDQKRREAELRAQTQPLRKEIARLEKEMEKLNAQLAQAEEKLGDSELYDQSRKAELTACLQQQASAKSGLEECEMAWLEAQEQLEQMLLEGQSN | 6.02 ± 0.54 | 4.89 ± 0.15 | 2.697 ± 0.016 | 3.16 ± 0.084 | 2.95 ± 0.13 | 2.39 ± 0.12 | 4.3 ± 0.48 | 6.5 ± 0.051 | 2.95 ± 0.15 | 3.94 ± 0.5 | 3.58 ± 0.25 | 6.36 ± 0.25 |
